According to patent US20200241008:

T1: indicator molecule containing the cleavable sequence (GPQGIFGQ) with a terminal biotin group connected via a polyethylene glycol spacer/linker, intact
T1 chain: GPQGIFGQ


Target: T1, indicator molecule containing the …

Row | Protein | reader value at 0.5 µg/ml MMP (lateral flow) [reader units]
1 | MMP12 (Enzo) (protein) GPVWRKHYITYRINNYTPDMNREDVDYAIRKAFQVWSNVTPLKFSKINTGMADILVVFARGAHGDFHAFDGKGGILAHAFGPGSGIGGDAHFDEDEFWTTHSGGTNLFLTAVHEIGHSLGLGHSSDPKAVMFPTYKYVDINTFRLSADDIRGIQSLYG | 1250
2 | MMP11 (Enzo) (protein) FVLSGGRWEKTDLTYRILRFPWQLVQEQVRQTMAEALKVWSDVTPLTFTEVHEGRADIMIDFARYWHGDDLPFDGPGGILAHAFFPKTHREGDVHFDYDETWTIGDDQGTDLLQVAAHEFGHVLGLQHTTAAKALMSAFYTFRYPLSLSPDDCRGVQHLYGQPWPTVTSRTPALG | 280
3 | MMP1 (Enzo) (protein) FVLTEGNPRWEQTHLTYRIENYTPDLPRADVDHAIEKAFQLWSNVTPLTFTKVSEGQADIMISFVRGDHRDNSPFDGPGGNLAHAFQPGPGIGGDAHFDEDERWTNNFREYNLHRVAAHELGHSLGLSHSTDIGALMYPSYTFSGDVQLAQDDIDGIQAIYGRSQNPVQP | 478
4 | MMP7 (Enzo) (protein) YSLFPNSPKWTSKVVTYRIVSYTRDLPHITVDRLVSKALNMWGKEIPLHFRKVVWGTADIMIGFARGAHGDSYPFDGPGNTLAHAFAPGTGLGGDAHFDEDERWTDGSSLGINFLYAATHELGHSLGMGHSSDPNAVMYPTYGNGDPQNFKLSQDDIKGIQKLYGKRSNSRKK | 373
